In US20100077492A1:

Target: human PC4 protein (full length wild type) (human) (UniProt P53999)
Assay: cell-based or functional assay

How did the PC4 binding to a 10-nt DNA bubble substrate in an electrophoretic mobility shift assay after pre-incubation of the DNA with XPG turn out when “purified human XPG (without HMK tag) (from UniProt P28715 1-1186) (enzyme)” was run?
Its PC4 binding to a 10-nt DNA bubble substrate in an electrophoretic mobility shift assay after pre-incubation of the DNA with XPG is 44 nM.
